We go through two molecules from patent US20100261660A1.

In the assay the target is Soluble CD28-Ig (extracellular domain of human CD28 fused to the Fc portion of human IgG1) (human), P10747. Kind of assay: competitive FACS on transfected cells, biotin-sCD28-Ig with FITC-sCTLA-4-Ig; grade 0-2 of CD28/CTLA-4 ratio vs WT hB7-1.

B1: Round 2 CD28A4-9 (ligand)
chain: ITPKSVTKRVKETVMLSCDYNTSTEKLTSLRIYWQKDSKMVLAILPGKVQVWPEYKNRTITDMNDNPRIVILALRLSDSGTYTCVIQKPVLKGAYKLEHLTSVRLMIRADFPVPTINDLGNPSPNIRRLICSTSGGFPRPHLYWLENGEELNATNTTVSQDPETKLYMISSELDFNVTNNHSIVCLIKYGELSVSQIFPWSKPKQEPPIDQLPFWVIIPVSGALVLTAVVLYCPACRHVARWKRTRRNEETVGTERLSPIYLGSAQSRAEVPSLSX
modifications: not fully specified; X: residue not identified in the source; ends and bridges not checked
Consider B1, for which the Binding Score was 1.

B2: Round 2 CD28A12-5 (ligand)
chain: ITPKSVTKRVKETVMLSCDYNTSTEELTSLRIYWRKDSKMXLAILPGKVQVWPEYKNRTITDMNDNLRIVILALRLSDSGTYTCVIQKPDLKGAYKLEHLTSVRLMIRADFPVPTINDLGNPSPNIRRLICSTSGGFPRPHLYWLENGEELNATNTTVSQDPGTELYMISSELDFNVTNNHSIVCLIKYGELLVSQIFPWSKPKQEPPIDQLPFWVIIPVSGALVLTAVVLYCLACRHVARWKRTRRNEETVGTERLSPIYLGSAQSSG
modifications: not fully specified; X: residue not identified in the source; ends and bridges not checked; also: glycosylated membrane protein, sites not given here
On to B2, for which the Binding Score is 1.
